B1: PTPRD (parent)
chain: FICQATGDPRPKIVWNKKGKKVSN
B2: PWWP2B (parent)
chain: TIRLRPRQVLCEKCKSTLSPPEAS

Variants of: B1
Test: protein stability index of a GFP-peptide fusion (GPS, HEK-293T) (PSI 1-6); higher = more stable
Settings: c terminus: a fixed tail appended
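Note: lentivirally expressed fusions sorted by FACS into six bins by GFP to DsRed ratio, PSI derived from sequencing read proportions per bin multiplied by bin number.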

Compared with FICQATGDPRPKIVWNKKGKKVSI, FICQATGDPRPKIVWNKKGKKVSP is lower in protein stability index: 2.73 for the first, 2.31 for the second.

Going from FICQATGDPRPKIVWNKKGKKVSH to FICQATGDPRPKIVWNKKGKKVSR, the protein stability index rises from 2.17 to 3.04.

Compared with FICQATGDPRPKIVWNKKGKKVSL, FICQATGDPRPKIVWNKKGKKVSQ is higher in protein stability index: 1.44 for the first, 2.02 for the second.

First: FICQATGDPRPKIVWNKKGKKVSM
Second: FICQATGDPRPKIVWNKKGKKVSW
The protein stability index of the first is lower: 1.4 for the first, 1.92 for the second.

Going from FICQATGDPRPKIVWNKKGKKVST to FICQATGDPRPKIVWNKKGKKVSY, the protein stability index rises from 1.65 to 2.08.

Going from FICQATGDPRPKIVWNKKGKKVSK to FICQATGDPRPKIVWNKKGKKVSS, the protein stability index rises from 1.85 to 2.03.

For FICQATGDPRPKIVWNKKGKKVSV, the protein stability index was 2.33.

Variants of: B2
Test: as above
Settings: c terminus: a fixed tail appended

First: TVRLRPRQVLCEKCKSTLSPPEAS
Second: TNRLRPRQVLCEKCKSTLSPPEAS
The protein stability index of the first is lower: 3.24 for the first, 4.05 for the second.

Going from TERLRPRQVLCEKCKSTLSPPEAS to TGRLRPRQVLCEKCKSTLSPPEAS, the protein stability index falls from 3.67 to 3.27.

Going from TWRLRPRQVLCEKCKSTLSPPEAS to THRLRPRQVLCEKCKSTLSPPEAS, the protein stability index rises from 3 to 3.54.

Going from TLRLRPRQVLCEKCKSTLSPPEAS to TFRLRPRQVLCEKCKSTLSPPEAS, the protein stability index rises from 3.35 to 3.54.

Going from TARLRPRQVLCEKCKSTLSPPEAS to TDRLRPRQVLCEKCKSTLSPPEAS, the protein stability index rises from 3.61 to 3.68.

Going from TQRLRPRQVLCEKCKSTLSPPEAS to TTRLRPRQVLCEKCKSTLSPPEAS, the protein stability index rises from 3.63 to 3.85.

Going from TKRLRPRQVLCEKCKSTLSPPEAS to TCRLRPRQVLCEKCKSTLSPPEAS, the protein stability index rises from 2.98 to 3.7.

First: TMRLRPRQVLCEKCKSTLSPPEAS
Second: TYRLRPRQVLCEKCKSTLSPPEAS
The protein stability index of the first is lower: 2.76 for the first, 3.04 for the second.

Going from TSRLRPRQVLCEKCKSTLSPPEAS to TPRLRPRQVLCEKCKSTLSPPEAS, the protein stability index rises from 3.64 to 4.11.

First: TRRLRPRQVLCEKCKSTLSPPEAS
Second: TIDLRPRQVLCEKCKSTLSPPEAS
The protein stability index of the first is lower: 3.11 for the first, 3.82 for the second.

Compared with TIMLRPRQVLCEKCKSTLSPPEAS, TIHLRPRQVLCEKCKSTLSPPEAS is lower in protein stability index: 3.14 for the first, 3.09 for the second.

Going from TIALRPRQVLCEKCKSTLSPPEAS to TILLRPRQVLCEKCKSTLSPPEAS, the protein stability index falls from 3.69 to 2.71.

Going from TIKLRPRQVLCEKCKSTLSPPEAS to TIPLRPRQVLCEKCKSTLSPPEAS, the protein stability index falls from 3.99 to 3.81.

Compared with TINLRPRQVLCEKCKSTLSPPEAS, TICLRPRQVLCEKCKSTLSPPEAS is lower in protein stability index: 3.8 for the first, 2.61 for the second.

First: TIYLRPRQVLCEKCKSTLSPPEAS
Second: TITLRPRQVLCEKCKSTLSPPEAS
The protein stability index of the first is lower: 2.82 for the first, 3.27 for the second.

Compared with TIFLRPRQVLCEKCKSTLSPPEAS, TIILRPRQVLCEKCKSTLSPPEAS is higher in protein stability index: 2.02 for the first, 3.04 for the second.

Going from TIVLRPRQVLCEKCKSTLSPPEAS to TIGLRPRQVLCEKCKSTLSPPEAS, the protein stability index rises from 2.7 to 3.09.

Going from TISLRPRQVLCEKCKSTLSPPEAS to TIQLRPRQVLCEKCKSTLSPPEAS, the protein stability index rises from 3.37 to 3.61.

First: TIWLRPRQVLCEKCKSTLSPPEAS
Second: TIELRPRQVLCEKCKSTLSPPEAS
The protein stability index of the first is lower: 2.98 for the first, 4.37 for the second.

Going from SIRLRPRQVLCEKCKSTLSPPEAS to CIRLRPRQVLCEKCKSTLSPPEAS, the protein stability index falls from 2.98 to 2.91.

First: QIRLRPRQVLCEKCKSTLSPPEAS
Second: MIRLRPRQVLCEKCKSTLSPPEAS
The protein stability index of the first is higher: 3.11 for the first, 2.23 for the second.

Compared with HIRLRPRQVLCEKCKSTLSPPEAS, VIRLRPRQVLCEKCKSTLSPPEAS is lower in protein stability index: 2.8 for the first, 2.78 for the second.

Going from IIRLRPRQVLCEKCKSTLSPPEAS to LIRLRPRQVLCEKCKSTLSPPEAS, the protein stability index falls from 2.44 to 2.28.

Going from RIRLRPRQVLCEKCKSTLSPPEAS to GIRLRPRQVLCEKCKSTLSPPEAS, the protein stability index rises from 2.65 to 3.09.

Compared with YIRLRPRQVLCEKCKSTLSPPEAS, FIRLRPRQVLCEKCKSTLSPPEAS is lower in protein stability index: 1.76 for the first, 1.72 for the second.

First: NIRLRPRQVLCEKCKSTLSPPEAS
Second: EIRLRPRQVLCEKCKSTLSPPEAS
The protein stability index of the first is higher: 3.63 for the first, 3.55 for the second.

First: DIRLRPRQVLCEKCKSTLSPPEAS
Second: AIRLRPRQVLCEKCKSTLSPPEAS
The protein stability index of the first is higher: 3.76 for the first, 2.59 for the second.

Compared with PIRLRPRQVLCEKCKSTLSPPEAS, WIRLRPRQVLCEKCKSTLSPPEAS is lower in protein stability index: 3.43 for the first, 2.12 for the second.

Going from KIRLRPRQVLCEKCKSTLSPPEAS to TIRLRPRQNLCEKCKSTLSPPEAS, the protein stability index rises from 2.98 to 3.58.

Compared with TIRLRPRQRLCEKCKSTLSPPEAS, TIRLRPRQFLCEKCKSTLSPPEAS is lower in protein stability index: 2.94 for the first, 2.72 for the second.

First: TIRLRPRQHLCEKCKSTLSPPEAS
Second: TIRLRPRQPLCEKCKSTLSPPEAS
The protein stability index of the first is lower: 2.97 for the first, 3.13 for the second.

First: TIRLRPRQWLCEKCKSTLSPPEAS
Second: TIRLRPRQDLCEKCKSTLSPPEAS
The protein stability index of the first is lower: 2.24 for the first, 3.19 for the second.

Going from TIRLRPRQYLCEKCKSTLSPPEAS to TIRLRPRQSLCEKCKSTLSPPEAS, the protein stability index rises from 2.54 to 3.16.

Going from TIRLRPRQTLCEKCKSTLSPPEAS to TIRLRPRQLLCEKCKSTLSPPEAS, the protein stability index falls from 3.33 to 2.37.

Compared with TIRLRPRQMLCEKCKSTLSPPEAS, TIRLRPRQGLCEKCKSTLSPPEAS is lower in protein stability index: 2.73 for the first, 2.64 for the second.

First: TIRLRPRQALCEKCKSTLSPPEAS
Second: TIRLRPRQQLCEKCKSTLSPPEAS
The protein stability index of the first is higher: 3.61 for the first, 3.31 for the second.

First: TIRLRPRQELCEKCKSTLSPPEAS
Second: TIRLRPRQKLCEKCKSTLSPPEAS
The protein stability index of the first is higher: 3.35 for the first, 2.85 for the second.

Going from TIRLRPRQILCEKCKSTLSPPEAS to TIRLRPRQCLCEKCKSTLSPPEAS, the protein stability index rises from 3 to 3.42.

First: TIRLRPFQVLCEKCKSTLSPPEAS
Second: TIRLRPKQVLCEKCKSTLSPPEAS
The protein stability index of the first is lower: 2.94 for the first, 2.99 for the second.

Going from TIRLRPVQVLCEKCKSTLSPPEAS to TIRLRPLQVLCEKCKSTLSPPEAS, the protein stability index falls from 2.96 to 2.62.

For TIRLRPHQVLCEKCKSTLSPPEAS, the protein stability index was 3.1.

Reference: the supplement of paper PMC10567573
